Measured values reported in article PMC3724922 (PLoS ONE, 2013).
Where a chain is given by its changes, count along the chain named. Names and notes keep the numbering of the source.

B1: laforin wild type, recombinant, no epitope tag (enzyme, human, UniProt O95278 1-331, looked up)
chain: MRFRFGVVVPPAVAGARPELLVVGSRPELGRWEPRGAVRLRPAGTAAGDGALALQEPGLWLGEVELAAEEAAQDGAEPGRVDTFWYKFLKREPGGELSWEGNGPHHDRCCTYNENNLVDGVYCLPIGHWIEATGHTNEMKHTTDFYFNIAGHQAMHYSRILPNIWLGSCPRQVEHVTIKLKHELGITAVMNFQTEWDIVQNSSGCNRYPEPMTPDTMIKLYREEGLAYIWMPTPDMSTEGRVQMLPQAVCLLHALLEKGHIVYVHCNAGVGRSTAAVCGWLQYVMGWNLRKVQYFLMAKRPAVYIDEEALARAQEDFFQKFGKVRSSVCSL
notes: laforin, human, a 331 amino acid protein encoded by EPM2A; amplified from pEG202-laforin into pET21b+ (NdeI, NotI); also called laforin WT; wt laforin; source: E. coli BL21 (RIL), pET21b+-laforin, purified (amylose resin)
B2: laforin C109S/110S, recombinant, no epitope tag (enzyme, human, UniProt O95278 1-331, looked up)
chain: B1 chain with C109S, C110S
notes: laforin, human, 331 amino acids (EPM2A), double mutant C109S/110S; source: E. coli BL21 (RIL), pET21b+, purified (amylose resin)
B3: laforin C250S, recombinant, no epitope tag (enzyme, human, UniProt O95278 1-331, looked up)
chain: B1 chain with C250S
notes: laforin, human, 331 amino acids (EPM2A), mutant C250S; source: E. coli BL21 (RIL), pET21b+, purified (amylose resin)
B4: laforin C123S, recombinant, no epitope tag (enzyme, human, UniProt O95278 1-331, looked up)
chain: B1 chain with C123S
notes: laforin, human, 331 amino acids (EPM2A), mutant C123S; source: E. coli BL21 (RIL), pET21b+, purified (amylose resin)
B5: laforin C169S, recombinant, no epitope tag (enzyme, human, UniProt O95278 1-331, looked up)
chain: B1 chain with C169S
notes: laforin, human, 331 amino acids (EPM2A), mutant C169S; source: E. coli BL21 (RIL), pET21b+, purified (amylose resin)
B6: laforin C205S, recombinant, no epitope tag (enzyme, human, UniProt O95278 1-331, looked up)
chain: B1 chain with C205S
notes: laforin, human, 331 amino acids (EPM2A), mutant C205S; source: E. coli BL21 (RIL), pET21b+, purified (amylose resin)
B7: wild type laforin with an amino-terminal HIS6 epitope (enzyme, human, UniProt O95278 1-331, looked up)
chain: B1 chain
notes: laforin, human, 331 amino acids (EPM2A); The plasmid of the His6 constructs is not described in the methods; also called laforin-WT; WT; not shown: His6, N-terminal, kept
B8: laforin C266S, recombinant, no epitope tag (enzyme, human, UniProt O95278 1-331, looked up)
chain: B1 chain with C266S
notes: laforin, human, 331 amino acids (EPM2A), catalytic cysteine mutant C266S; source: E. coli BL21 (RIL), pET21b+, purified (amylose resin)

Molecular target: the molecule itself
Assay: native gel or EMSA; purified recombinant proteins incubated with 10 mM H2O2, then non-reducing, non-denaturing electrophoresis, anti-laforin immunoblot

Binding result, binds:
B1

Molecular target: the molecule itself
Assay: native gel or EMSA; purified recombinant proteins, non-reducing, non-denaturing electrophoresis (SDS- and DTT-free loading buffer), immunoblot with anti-laforin or anti-HIS antibody; self-association, monomer and dimer bands

Binding result, binds:
B2
B3
B4
B5
B6
B7
B8
